Test results published in the Immune Epitope Database (IEDB).
pKd: −log10 of the molar value.

Key:
[1] = biological target: HLA-A*69:01; test: IEDB peptide-MHC binding, purified MHC/direct/fluorescence; filed as Kd, often an IC50 or EC50 that approximates it; ≥ and ≤ were set here for values at or beyond the usual limits of such assays
[2] = biological target: HLA-B*58:01; test: as above
[3] = biological target: HLA-B*07:02; test: as above
[4] = biological target: HLA-A*11:01; test: as above
[5] = biological target: HLA-B*15:01; test: as above
[6] = biological target: HLA-A*01:01; test: as above
[7] = biological target: HLA-A*31:01; test: as above
[8] = biological target: HLA-A*26:01; test: as above
[9] = biological target: HLA-B*44:02; test: as above
[10] = biological target: HLA-A*03:01; test: as above
[11] = biological target: HLA-B*08:01; test: as above
[12] = biological target: HLA-B*40:01; test: as above
[13] = biological target: HLA-B*27:05; test: as above
[14] = biological target: HLA-B*46:01; test: IEDB peptide-MHC binding, purified MHC/competitive/fluorescence; filed as Kd, often an IC50 or EC50 that approximates it; ≥ and ≤ were set here for values at or beyond the usual limits of such assays; conditions: source organism: Giardia lamblia ATCC 50803
[15] = biological target: HLA-B*40:02; test: IEDB peptide-MHC binding, purified MHC/competitive/radioactivity; filed as Kd, often an IC50 or EC50 that approximates it; ≥ and ≤ were set here for values at or beyond the usual limits of such assays
[16] = biological target: HLA-B*45:01; test: as above
[17] = biological target: HLA-B*18:01; test: as above
[18] = biological target: HLA-B*44:03; test: as above
[19] = biological target: HLA-B*44:02; test: as above
[20] = biological target: HLA-B*40:01; test: as above
[21] = biological target: HLA-A*02:01; test: IEDB peptide-MHC binding, purified MHC/direct/fluorescence; filed as Kd, often an IC50 or EC50 that approximates it; ≥ and ≤ were set here for values at or beyond the usual limits of such assays
[22] = biological target: HLA-A*03:01; test: IEDB peptide-MHC binding, purified MHC/competitive/fluorescence; filed as Kd, often an IC50 or EC50 that approximates it; ≥ and ≤ were set here for values at or beyond the usual limits of such assays; conditions: source organism: Influenza A virus (A/Puerto Rico/8/1934(H1N1))
[23] = source organism: Giardia lamblia ATCC 50803
[24] = source organism: SARS coronavirus Tor2
[25] = source organism: Mammarenavirus guanaritoense
[26] = source organism: Lymphocytic choriomeningitis virus (strain Armstrong)
[27] = source organism: Mammarenavirus machupoense
[28] = source organism: Salmonella enterica

AAFLDDNAF
pKd [1, 23]: ≤ 4.70
pKd [2, 23]: ≤ 4.70
pKd [3, 23]: ≤ 4.70
pKd [4, 23]: ≤ 4.70
pKd [5, 23]: 6.97
pKd [6, 23]: ≤ 4.70
pKd [7, 23]: ≤ 4.70
pKd [8, 23]: ≤ 4.70
pKd [9, 23]: ≤ 4.70
pKd [10, 23]: ≤ 4.70
pKd [11, 23]: ≤ 4.70
pKd [12, 23]: ≤ 4.70
pKd [13, 23]: ≤ 4.70
pKd [14]: 6.93

AEAAVKPLL
pKd [15, 24]: 4.71
pKd [16, 24]: 6.82
pKd [17, 24]: ≤ 4.11
pKd [18, 24]: 7.27
pKd [19, 24]: 7.22
pKd [20, 24]: 8.07

AEAYCTGML
pKd [15, 25]: 6.95
pKd [16, 25]: 5.86
pKd [17, 25]: ≤ 4.11
pKd [18, 25]: 6.46
pKd [19, 25]: 6.74
pKd [20, 25]: 6.94

AEFWDVFLS
pKd [1, 23]: ≤ 4.70
pKd [2, 23]: ≤ 4.70
pKd [3, 23]: ≤ 4.70
pKd [4, 23]: ≤ 4.70
pKd [5, 23]: ≤ 4.70
pKd [21, 23]: ≤ 4.70
pKd [6, 23]: ≤ 4.70
pKd [7, 23]: ≤ 4.70
pKd [8, 23]: ≤ 4.70
pKd [9, 23]: ≤ 4.70
pKd [10, 23]: ≤ 4.70
pKd [11, 23]: ≤ 4.70
pKd [12, 23]: 7.30
pKd [13, 23]: ≤ 4.70

AEGSRGGSQA
pKd [15, 24]: 4.73
pKd [16, 24]: 6.69
pKd [17, 24]: ≤ 4.15
pKd [18, 24]: 4.84
pKd [19, 24]: 5.07
pKd [20, 24]: ≤ 4.55

AEVVKLPSRY
pKd [15, 24]: ≤ 4.65
pKd [16, 24]: 5.01
pKd [17, 24]: 5.30
pKd [18, 24]: 7.12
pKd [19, 24]: 6.84
pKd [20, 24]: 4.82

CIYRRFKYGLK
pKd [22]: 8.25

DEDDSEPVL
pKd [15, 24]: 5.50
pKd [16, 24]: 4.75
pKd [17, 24]: 5.28
pKd [18, 24]: 4.80
pKd [19, 24]: ≤ 4.42
pKd [20, 24]: 6.86

DESALNISGY
pKd [15, 25]: ≤ 4.53
pKd [16, 25]: ≤ 4.15
pKd [17, 25]: 7.65
pKd [18, 25]: 5.47
pKd [19, 25]: 4.96
pKd [20, 25]: ≤ 4.16

EDFLLMYEM
pKd [15, 25]: 8.25
pKd [16, 25]: 5.33
pKd [17, 25]: 7.04
pKd [18, 25]: 5.59
pKd [19, 25]: 6.24
pKd [20, 25]: 4.77

EDQLLPFMS
pKd [15, 26]: ≤ 4.18
pKd [16, 26]: 5.43
pKd [17, 26]: ≤ 4.26
pKd [18, 26]: ≤ 4.11
pKd [19, 26]: ≤ 4.45
pKd [20, 26]: ≤ 4.23

EEPAALLPLS
pKd [15, 27]: 6.07
pKd [16, 27]: 6.68
pKd [17, 27]: 4.94
pKd [18, 27]: ≤ 4.70
pKd [19, 27]: 5.47
pKd [20, 27]: 4.92

EEQTDPKTL
pKd [1, 28]: ≤ 4.70
pKd [2, 28]: ≤ 4.70
pKd [3, 28]: ≤ 4.70
pKd [4, 28]: ≤ 4.70
pKd [5, 28]: ≤ 4.70
pKd [21, 28]: ≤ 4.70
pKd [6, 28]: ≤ 4.70
pKd [7, 28]: ≤ 4.70
pKd [8, 28]: ≤ 4.70
pKd [9, 28]: ≤ 4.70
pKd [10, 28]: ≤ 4.70
pKd [11, 28]: ≤ 4.70
pKd [12, 28]: 5.13
pKd [13, 28]: ≤ 4.70
